Results on 42 variants are retold here after the RNAGym collection of RNA variant scans (doi:10.1073/pnas.2313332121).

B1: TPR t1 (parent)
chain: GACCAAUCUGCCCUCAGAGCUCGAGAACAUCUUCGGAUGCAGAGGAGGCAGGCUUCGGUGGCGCGAUAGCGCCAACGUCCUCAACCUCCAAUGCAUCCCACCACAUGAUGAUGCCUGAAGAGCCUUGGUUUUUUG

In the data set the parent is B1. The experiment in a line: polymerase ribozyme fitness, log enrichment relative to wild type (log ratio); higher = more active; in vitro selection for triplet polymerase activity. In outline:
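A heterodimeric triplet polymerase ribozyme had each of its subunits mutagenized by PCR into a library, which was transcribed. One round of in vitro selection, done in triplicate, annealed each library with a biotinylated primer, its partner subunit and triplets, then incubated it frozen at −7 °C before gel excision of extended constructs, streptavidin-bead capture and RT-PCR. Fitness is the logarithm of genotype enrichment relative to wild-type enrichment, based on Illumina sequencing of inputs and outputs and inverse-variance-weighted replicate averages. A base-2 logarithm is used, and genotypes were kept only with ≥10 input reads and ≥1 read per output.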
Take GACCAAUCUGCCCUCAGAGCUCGAGAACAUCUUCGGAUGCAGAGGAGGCAGGCUUCGGCGGCGCGAUAGCGCCAACGUCCUCAACCUCCAAUGCAUCCCACCACAUGAUAAUGCCUGAAGAGCCUUGGUUUUUUG: the “polymerase ribozyme fitness (log ratio)” value was -1.31.

Turning to GACCAAUCUGCCCUGAGAGCUCGAGAACAUCUUCGGAUGCAGAGGAGGCAGGCUUCGGUAGCGCGAUAGCGCCAACGUCCUCAACCUCCAAUGCAUCCCACCACAUGAUGAUGCCUUAAGAGCCUUGGUUUUUUG, the “polymerase ribozyme fitness (log ratio)” value was -0.472.

Take GACCAAUCUGCCCUCAGAGCUCGAGAACAUCUUCGGAUGCAGAGGAGGCAGGCUUCGGUGCCGCGAUAGCGCCAACGUCCUCAACCUCCAAUGCAUCCCACCACAUGAUUAUGCCUGAAGAGCCUUGGUUUUUUG: the “polymerase ribozyme fitness (log ratio)” value was -3.71.

Regarding GACCAAUCUGCCCUCAGAGCUCGAGAACAUCUUCGGAUGCAGAGGAGGCUGGCUUCGGUGGCGCGAUAGCGCCAACGUCCUCAACCACCAAUGCAUCCCACCACAUGAUGAUGCCUGAAGAGCCUUGGUUUUUUG, the “polymerase ribozyme fitness (log ratio)” value is -1.09.

Consider GAUCAAUCUGACCUCAGAGCUCGAGAACAUCUUCGGAUGCAGAGGAGGCAGGCUUCGGUGGCGCGAUAGCGCCAACGACCUCAACCUCCAAUGCAUCCCACCACAUGAUGAUGCCUGAAGAGCCUUGGUUUUUUG, for which the “polymerase ribozyme fitness (log ratio)” value was -2.75.

GACCAAUCUGGCCUCAGAGCUCGAGAAGAUCUUCGGAUGCAGAGGAGGCAGGCUUCGGUGGCGCGAUAGCGCCAACGUCCUCAACCUCCAAUGCAUCCCACCACUUGAUUAUGCCUGAAGAGCCUUGGUUUUUUG: the “polymerase ribozyme fitness (log ratio)” value was -6.33.

GACCAAUAUGCACUCAGAGCUCGAGAACAUCUUCGGAUGCAGAGGAGGCAGGCUUCGGUGGCGCGAUAGUGCCAACCUCCUCAACCUCCAAAGCAUCCCACCACAUGAUGAUGCCUGAAGAGCCUUUGUGAUUUG: the “polymerase ribozyme fitness (log ratio)” value is -6.59.

With GACCAAUCUGCCCUCAGAGCUCGAGAACAUCUUCGGAUGCAGAGGAGGCAGGCCUUGGUGGCGCGAUAGCGCCAACGUCCUAAACCUCCAAUGCAACCCACCACAUGAUGAUGCCUGAAGAGCCUUGGUUUUUUG, the “polymerase ribozyme fitness (log ratio)” value is -1.95.

As for GACCAAUCUGCCCUCAGAGCUCGAGAACAUCUUCGGAUGCAGAGGAGGCAGGCUUCGGUGGCGCGAUAGCGUCAACGUCCUCAACCUCCAAUGCAUCCCACCACAUGAUGAUGCCUGAAGAGCCUUGGUUUUAUG, the “polymerase ribozyme fitness (log ratio)” value is -0.682.

Turning to GACCAAUCUGCCCUCAGCGCUCGAGAACAUCUUCGGAUGCAGAGGAGGCAGGCUUCGGUGGGGCGAUAGCGCCAACGUCCUCAACCCCCCAUGCAUCCCACCACAUGAUCAUGCAUGAAGAGCCUUGGUUUUUUG, the “polymerase ribozyme fitness (log ratio)” value was -7.

Take GACCAAUCUGCGCUCAGAGCUCGAGAACAUCUUCGGAUGCAGAUGAGGCAGGCUUCGGUGGCGCGAUAGCGCCAACGUCCUCAACCUCCCAUGCAUCCCACCACAUGAUGAUGCCUGAAGUGCCUUGGUUUUUUG: the “polymerase ribozyme fitness (log ratio)” value was found to be 0.668.

As to GACCUAUCUGUCCUCAGAGCUCGAGAACAUCUUCGGAUGCAGAGGAGGCAGGCUUCGGUGGCCCGAUAGCGCCAACGUCAUCAACCUCCAAUGCAUCCCACCACCUGAUGAUUCCUGAAGAGCCUUGGUUUUUUG, the “polymerase ribozyme fitness (log ratio)” value was -5.39.

Take GACCAAUCUGCCCUCAGAGCUCGAGAACAUCUACGGAUGCAGAGGAGGCAGUCUUCGGUGGCGCGAUAGCGCCAACGUCCUCAACCUCCAAUGCAUCCCACCACAUGAUGAAGCCUGAAGAGCCUUGGUUUUUUG: the “polymerase ribozyme fitness (log ratio)” value is -6.07.

Regarding GAUCAAUCUGCCUUCAGAGCUCGAGAACAUCUUUGGAUGCAGAGGAGGCAGGCUUCGGUGGCGCGAUAUCGCCAACGUCCUCAAUCUCCAAUGCAUCCCACCACAUGAUGAUGCCUGAAGAGCCUUGGUUUUUUG, the “polymerase ribozyme fitness (log ratio)” value is -2.76.

Turning to GACCAAUCUGCCCUCAGAGCUCGAGAACAUCUUCGGAUGCAGAGGAGGCAGGCUUCGGUGGCGCGUUAGCGCCAACGUCCUCAACCUCCAAUGCAUCCCACCACAUGAUGAUGCCUGAAGAGCCAUGGUUUUUUG, the “polymerase ribozyme fitness (log ratio)” value is -2.11.

For GACCAAUGUGCCCUCAGAGCUCGGGAACAUCUUCGGAUGCAGAGGAGGCAGGCUUCGGUGGCGCGAUAGCGGCAACGUCCUCAACCUCCAAUGCAUGCCACCACAUGAUGAUGCGUGAAGAGCCUUGGUUUUUUG, the “polymerase ribozyme fitness (log ratio)” value was -4.32.

For GACCAAUCUGCCCUCAGCGCUCGAGAACAUCUUCGGAUGCAGAGGAGGCAGGCUUUGGUGGCGCGAUAGCGCCAACGUCCUCAACCUCCAAUGCAUCCCACCACAUGAUGAUGCCUGAAGAGCCUUGGUUUAUUG, the “polymerase ribozyme fitness (log ratio)” value is -2.9.

As to GACCAAUCUGCCCUCAGAGCUCGAGAACGUCUUCGGAUGCAGAGGAGGCAGGCUUCGGUGGCGCGAUAGCGCCUACGUCCUCAACCUCCAAUGCAUCCCACCACAUGAUGAUGCCUGAAGAGCCUUGGUUUUUUG, the “polymerase ribozyme fitness (log ratio)” value was -1.73.

On to GACCAAUCUGCCCUCAGAGCUCGAGAACAUCUUCGGAUGCAGAGGAGGCAGGCUUCGGUUGCGCGAUAGCGCCAACGUCAUCAACCUCCAAUGCAUCCCACCACAAGAUGAUGCCUGAAGAGCCUUGGUUUUUUG, for which the “polymerase ribozyme fitness (log ratio)” value was -3.14.

Regarding GACCAAUGUGCCCUCAGAGCUCGAGAACAUCUUCCGAUGCAGAGGAGGCUGGCUUCGGUGGCGCGAUAGCGCCAACGUCCUCAACCUCCAAUGCAUCCCACCACAUGAUGAUGCCUGUAGAGCCUUGGUUUUUUG, the “polymerase ribozyme fitness (log ratio)” value is -5.01.

For GACCAAUCUGCUCUCAGAGCUCGAGAACAUCUUCGGAUGCAGAGGAGUCAGGCUUCGGUGGCGCGAUAGCGCCAACGUCCUCAACCUCCAAUGCAUCCCACCACAUGAUGCUGCCUGAAGAGCCUUGGUUUUUUG, the “polymerase ribozyme fitness (log ratio)” value is -0.108.

On to GACCAAUCUGCCCUCGGAGCUCGAGAACAUCUUCGGAUGCAGAGGAGGCAGGCCUCGGUGGCGCGAUAGCGCCAACGUCCUCAACCUCCAAUGCAUCCCACCACAUGAUGAUGCCUGAAGAGCCUUGGUUUUUUG, for which the “polymerase ribozyme fitness (log ratio)” value was -1.39.

Take GACCAAUCUGCCCUCAGAGCUCGAGAACAUCUUCGGAUGCAGAGGAGGCAGGCUACGGUGGCGCGAUAGCGCCAACGUUCUCAACCUCCAAUGCAUUCCACCACAUGAUGAUGCUUGAAGAGCCUUCGUUUUUUG: the “polymerase ribozyme fitness (log ratio)” value is -3.52.

As to GACCAAUCUGCCCUCAGAGCUCGAGAACAUCUUCGGAUGCAGAGGAGGCUGGCUUCGGUGGCGCGAUAGCGCCAAAAUCCUCAACCUCCAAUGCAUCCCACCACAUGAUGAUGCCUGAAGAGCCUUGGUUUUUUG, the “polymerase ribozyme fitness (log ratio)” value is -1.53.

For GACCAAUCUGCCCUCAGAGCUCGAGAACAUCUUCGGAUGCAGAGGAGGCAGGCUUCGGUGGCGCGAUAGCGCCAACGUCCUCAACCUCAAAUGCAUCCCACCACAUGAUGAUGGCUGAAGAGCCUUGGUUUUUUG, the “polymerase ribozyme fitness (log ratio)” value was -2.82.

In the case of GACCAAUCUGCCCUCAGAGCUCGAGAACAUCUUCGGAUGCAGAGGAGGCAGGCUUCGGUGGCGCGAUAGCGCCUACGACCUCAAUCUCCAAUGCAUCCCACCACAUGAUGAUGUCUGAAGAGCCUUGGUUUUUUG, the “polymerase ribozyme fitness (log ratio)” value was -4.72.

Regarding GACCAAUCUGCCCUCAGAGCUCGAGAACAUCUUCGGAUGCAGAGGAGGCAGGCUUCGGUGGCGCGAUAGCGCCAAGGUCCUCAACCUCCAAUGCAUCCCACUAAAUGAUGAUGCCUGAAGAGCCUUGGUUUUUUG, the “polymerase ribozyme fitness (log ratio)” value was -1.03.

As to GACCAAUCUGCCCUCAGAGCUCGAGAACAUCUUAGGAUGCAGAGGAGGCAGGCUUCGGUGGCGCGAUAGCGCCAACGUCCUAAACCUCCAAUGCAUCCCACCACAUGAUGAAGCCUGAAGAGCCUUGGUUUUUUG, the “polymerase ribozyme fitness (log ratio)” value was -2.63.

As for GACCAAUCUGCCCUCAGAGCUCGAGAACAUCUUCGGAUGCAGAGGAGGCAGGCUUCGGUGGCGCGAUAUCGCCAACGUCCUCAACCACCAAUGCAUACCACCACAUGAUGAUGCCUGAAGAGCCUUGGUUUUUUG, the “polymerase ribozyme fitness (log ratio)” value is -2.19.

With GACCAAUCUGCCCUCAGAGCUGGAGAACAUCUUCGGAUGCAGAGGAGGCAGGCUUCCGUGGCGCGAUAGCGCCAACGUCCUCAACCUCAAAUGCGUCCCACCACAUGAUGUUGCCUGAAGUGCCUUGGUUUUUUG, the “polymerase ribozyme fitness (log ratio)” value was -4.42.

Consider GACCAAUCUGCCCUCAGAGCUCGAGAACAUCUUCGGAUGCAGAGGAGGCAGGCUUCGGUUGCGCGAUAGCGCCAACGUCCUCAACCUCCAAUGCAUCCCACCACAUGAUGAUGUCUGAAGAGCCUUGGUUUUUUG, for which the “polymerase ribozyme fitness (log ratio)” value is -2.1.

Turning to GACCAAUCUACCCUCAGAGUUCGAGACCAUCUUCGGAUGCAGAGGAGGCAGGCUUCGGUGUCGCGAUAGCGCCAACGUCCUCAACCUCCAAUGCAUCCCACUACAUGAUGAUGCCUGAAGAGCCUUGGUUUUUUG, the “polymerase ribozyme fitness (log ratio)” value was -6.05.

As for GACCAAUCUGCCCUCAGAGCUCGAGAACAUCUUCGGAUGCAGAGGAGGGAGGAUUCAGUGGCGCGAUAGCGCCAACGUCCUCAAACUACAAUGCAUCCCACCACAUGAUGAUGCGUGAAGAGCCUUGGUUUUUUG, the “polymerase ribozyme fitness (log ratio)” value was -3.29.

Turning to GACCAAUCUGCCCUCAGAGCUCGAGAACAUCUUCGGAUGCAGAGGAGGCAGGCUUCGGUGGAGCGAUAGCGCCAACGUCCUCAACCUCCAAUGUAUCCCACCACAUGAUGAUGCCUGAAGAGCCUUGGUUUUUUG, the “polymerase ribozyme fitness (log ratio)” value was -1.76.

Turning to GACCAAUCUGCCCUCAGAGCUCGAGUACAUCUUCGGAUGCAGAUGAGGCAGGCUUCGGUGGCGGGAUAGCGCCAACGUCCUCAACCUCUAAUGCAUCCCACCACAUGAUGAGGCCUGAAGAGCCUUGGUUUUUUG, the “polymerase ribozyme fitness (log ratio)” value is -6.55.

GACCAAGCUGCUCUAAGAGCUGGAGAACAUCUUCGGAUGCAGAGGAGGCAGGCUUCGGUGGCGCGAUAGCGCCAACGUCCUCAACCUCCAAUGCAUCCCACCAUAUGAUGAUGCCUGAAGAGCCUUGGUUUUUUG: the “polymerase ribozyme fitness (log ratio)” value is -3.41.

With GACCAAUCUGCCCUCAGAGCUCGAGAACAUCUUCGGAUGCAGAGGAGGCAGGCUUCGGUGGCGCGAUAGCACCAACAGCCUCAACCUCCAAUGCAUCCCACCACAUGAUGAUGCCUGAAGAGCCUUGGUUUUUUG, the “polymerase ribozyme fitness (log ratio)” value is -4.6.

For GACCAAUCUGCCCUCAGAGCUCGAGAACAUCUUCGGAUGCAGAGGAGGCAGGCUUAGGUGGCGCGAUAGCGCCAACGUCCUCAACCUCCAAUCCAUCCCACCACAUGAUGAUGCCUGAAGAGCCUUGGUUUUUUG, the “polymerase ribozyme fitness (log ratio)” value was -1.88.

For GACCAAUCUGCCCUUAGAGCUCGAGAACAUCUUCGGAUGCAGAGGAGGCAGGCUUCGGUGGCACGAUAGCGCCAACGUACUCAACCUCCAAUGCAUUCCACCACAUGAUGAGGCCUGAAGAGCCUUGGUUUUUUG, the “polymerase ribozyme fitness (log ratio)” value is -4.94.

For the variant GACCAAUCUGCCCUCAGAACUCGAGAACAUCUUCGGAUGCAGAGGAGGCAGGCUUCGGUGGCGCGAUAGCGUCAUCGUCCUCAACCUCCAAUGCAUCCCACCACAUGAUGAUGACUGAAGAGCCUUGGUUUUUUG, the “polymerase ribozyme fitness (log ratio)” value was -2.05.

For the variant GACCAAUCUGCCCUCAGAGCUCGAGAACAUCUUCGUAUGCAGAGGAUGCAGGCUUCGGUGGCGCGAUAGCGCCAACGUCCUCAACCUCCAAUGCAUCCCACCACAUGAUGAUGCCUGAAGAGCCUUGGUUUUUUG, the “polymerase ribozyme fitness (log ratio)” value was -2.97.

Consider GACCAAUCUGCCCUCAGAGCUCGAGAACAUCUUCGGAUGCAGAGGAGGCAGCCUUCGAUGGCGCGAUAGCGCCAACGUACUCAAUCUCCAAUGCAUCCCACCACAUGAUGAUGCCUGAAGAGCCUUGGUUUUUUG, for which the “polymerase ribozyme fitness (log ratio)” value is -2.78.
